Assay results published in the RNAGym collection of RNA variant scans (doi:10.1021/acssynbio.7b00057).

B1: Pistol ribozyme (parent)
chain: GGGUCGUUGUUCCAUAAUCGCGUGGAUAUGGCACGCAAGUUUCUACCGGGCACCGUAAAUGUCCGACUGGAGCCGUUCGGGCGGCUAUAAACAGACCUCAGGCCCGAAGCGUGGCGGCACCUGCCGCCGGUGGUAAAAAAGAUCGGAAGAGCACACGUCU

Variants of: B1
Test: aptazyme ON/OFF ratio, guanine; higher = stronger switching; co-transcriptional cleavage with and without guanine

Variant | aptazyme ON/OFF ratio
GGGUCGAUCCAUCAUAAUCGCGUGGAUAUGGCACGCAAGUUUCUACCGGGCACCGUAAAUGUCCGACUGGAGCCGUUCGGGCGGCUAUAAACAGACCUCAGGCCCGAAGCGUGGCGGCACCUGCCGCCGGUGGUAAAAAAGAUCGGAAGAGCACACGUCU [U7A G9C U10C U11A C12U] | 1.04
GGGUCGAUCCGGCAUAAUCGCGUGGAUAUGGCACGCAAGUUUCUACCGGGCACCGUAAAUGUCCGACUGGAGCCGUUCGGGCGGCUAUAAACAGACCUCAGGCCCGAAGCGUGGCGGCACCUGCCGCCGGUGGUAAAAAAGAUCGGAAGAGCACACGUCU [U7A G9C U10C U11G C12G] | 1.1
GGGUCGAUCCGACAUAAUCGCGUGGAUAUGGCACGCAAGUUUCUACCGGGCACCGUAAAUGUCCGACUGGAGCCGUUCGGGCGGCUAUAAACAGACCUCAGGCCCGAAGCGUGGCGGCACCUGCCGCCGGUGGUAAAAAAGAUCGGAAGAGCACACGUCU [U7A G9C U10C U11G C12A] | 1.04
GGGUCGAUCCAUGAUAAUCGCGUGGAUAUGGCACGCAAGUUUCUACCGGGCACCGUAAAUGUCCGACUGGAGCCGUUCGGGCGGCUAUAAACAGACCUCAGGCCCGAAGCGUGGCGGCACCUGCCGCCGGUGGUAAAAAAGAUCGGAAGAGCACACGUCU [U7A G9C U10C U11A C12U C13G] | 1.08
GGGUCGAUCCAUUAUAAUCGCGUGGAUAUGGCACGCAAGUUUCUACCGGGCACCGUAAAUGUCCGACUGGAGCCGUUCGGGCGGCUAUAAACAGACCUCAGGCCCGAAGCGUGGCGGCACCUGCCGCCGGUGGUAAAAAAGAUCGGAAGAGCACACGUCU [U7A G9C U10C U11A C12U C13U] | 1.06
GGGUCGAUCCAUAAUAAUCGCGUGGAUAUGGCACGCAAGUUUCUACCGGGCACCGUAAAUGUCCGACUGGAGCCGUUCGGGCGGCUAUAAACAGACCUCAGGCCCGAAGCGUGGCGGCACCUGCCGCCGGUGGUAAAAAAGAUCGGAAGAGCACACGUCU [U7A G9C U10C U11A C12U C13A] | 1.04
GGGUCGAUCCGAGAUAAUCGCGUGGAUAUGGCACGCAAGUUUCUACCGGGCACCGUAAAUGUCCGACUGGAGCCGUUCGGGCGGCUAUAAACAGACCUCAGGCCCGAAGCGUGGCGGCACCUGCCGCCGGUGGUAAAAAAGAUCGGAAGAGCACACGUCU [U7A G9C U10C U11G C12A C13G] | 1.05
GGGUCGAUCCGAAAUAAUCGCGUGGAUAUGGCACGCAAGUUUCUACCGGGCACCGUAAAUGUCCGACUGGAGCCGUUCGGGCGGCUAUAAACAGACCUCAGGCCCGAAGCGUGGCGGCACCUGCCGCCGGUGGUAAAAAAGAUCGGAAGAGCACACGUCU [U7A G9C U10C U11G C12A C13A] | 1.04
GGGUCGAUCCGAUAUAAUCGCGUGGAUAUGGCACGCAAGUUUCUACCGGGCACCGUAAAUGUCCGACUGGAGCCGUUCGGGCGGCUAUAAACAGACCUCAGGCCCGAAGCGUGGCGGCACCUGCCGCCGGUGGUAAAAAAGAUCGGAAGAGCACACGUCU [U7A G9C U10C U11G C12A C13U] | 1.02
GGGUCGAUCCAAUAUAAUCGCGUGGAUAUGGCACGCAAGUUUCUACCGGGCACCGUAAAUGUCCGACUGGAGCCGUUCGGGCGGCUAUAAACAGACCUCAGGCCCGAAGCGUGGCGGCACCUGCCGCCGGUGGUAAAAAAGAUCGGAAGAGCACACGUCU [U7A G9C U10C U11A C12A C13U] | 1.03
GGGUCGAUCCAAGAUAAUCGCGUGGAUAUGGCACGCAAGUUUCUACCGGGCACCGUAAAUGUCCGACUGGAGCCGUUCGGGCGGCUAUAAACAGACCUCAGGCCCGAAGCGUGGCGGCACCUGCCGCCGGUGGUAAAAAAGAUCGGAAGAGCACACGUCU [U7A G9C U10C U11A C12A C13G] | 1.06
GGGUCGAUCCAAAAUAAUCGCGUGGAUAUGGCACGCAAGUUUCUACCGGGCACCGUAAAUGUCCGACUGGAGCCGUUCGGGCGGCUAUAAACAGACCUCAGGCCCGAAGCGUGGCGGCACCUGCCGCCGGUGGUAAAAAAGAUCGGAAGAGCACACGUCU [U7A G9C U10C U11A C12A C13A] | 1.07
GGGUCGAUCCCUAAUAAUCGCGUGGAUAUGGCACGCAAGUUUCUACCGGGCACCGUAAAUGUCCGACUGGAGCCGUUCGGGCGGCUAUAAACAGACCUCAGGCCCGAAGCGUGGCGGCACCUGCCGCCGGUGGUAAAAAAGAUCGGAAGAGCACACGUCU [U7A G9C U10C U11C C12U C13A] | 1.05
GGGUCGAUCCCUUAUAAUCGCGUGGAUAUGGCACGCAAGUUUCUACCGGGCACCGUAAAUGUCCGACUGGAGCCGUUCGGGCGGCUAUAAACAGACCUCAGGCCCGAAGCGUGGCGGCACCUGCCGCCGGUGGUAAAAAAGAUCGGAAGAGCACACGUCU [U7A G9C U10C U11C C12U C13U] | 0.994
GGGUCGAUCCCUGAUAAUCGCGUGGAUAUGGCACGCAAGUUUCUACCGGGCACCGUAAAUGUCCGACUGGAGCCGUUCGGGCGGCUAUAAACAGACCUCAGGCCCGAAGCGUGGCGGCACCUGCCGCCGGUGGUAAAAAAGAUCGGAAGAGCACACGUCU [U7A G9C U10C U11C C12U C13G] | 1.04
GGGUCGAUCCCGCAUAAUCGCGUGGAUAUGGCACGCAAGUUUCUACCGGGCACCGUAAAUGUCCGACUGGAGCCGUUCGGGCGGCUAUAAACAGACCUCAGGCCCGAAGCGUGGCGGCACCUGCCGCCGGUGGUAAAAAAGAUCGGAAGAGCACACGUCU [U7A G9C U10C U11C C12G] | 1.03
GGGUCGAUCCCACAUAAUCGCGUGGAUAUGGCACGCAAGUUUCUACCGGGCACCGUAAAUGUCCGACUGGAGCCGUUCGGGCGGCUAUAAACAGACCUCAGGCCCGAAGCGUGGCGGCACCUGCCGCCGGUGGUAAAAAAGAUCGGAAGAGCACACGUCU [U7A G9C U10C U11C C12A] | 1.01
GGGUCGAUCCCUCAUAAUCGCGUGGAUAUGGCACGCAAGUUUCUACCGGGCACCGUAAAUGUCCGACUGGAGCCGUUCGGGCGGCUAUAAACAGACCUCAGGCCCGAAGCGUGGCGGCACCUGCCGCCGGUGGUAAAAAAGAUCGGAAGAGCACACGUCU [U7A G9C U10C U11C C12U] | 1.04
